Results taken from patent publication WO2004044204A2 (dated 2004).

How the values were obtained:
β-amyloid peptide 1-42 [1] = target: T1, β-amyloid peptide 1-42; assay: ELISA with overlapping peptides that are fragments of Aβ42; the affinity is told for the carboxy terminal part
T1 construct: Synthesised on solid phase; It was coated on plates or used in solution; one result is told for its fibrillar form; also called Aβ42; peptide Aβ42

β-amyloid peptide 1-42 [2] = target: T1, β-amyloid peptide 1-42; assay: competition ELISA

| Kd (β-amyloid peptide 1-42 [1]) [nM] | Kd (β-amyloid peptide 1-42 [2]) [nM] | Binder |
| --- | --- | --- |
| ~10 | – | VHH ALZ V31-1 (VHH, Alpaca VHH, produced soluble in E. coli HB2151 from pHEN-1; It was detected with anti-c-myc 9E10; also called VHH-V31-1; VHH V31-1) VHH: EVQLQASGGGSVQPGGSLRLSCAASGFIFGWSTMSWVRQAPGKGLEWVSTISGGGSATTYTDSVKGRFTISRDRAKNTLYLQMNSLKPEDTAIYYCNADVSTGFRYQRKDYWGRGTQVTVSS |
| – | 30 | VHH ALZ L35 (VHH, Alpaca VHH, produced soluble in E. coli HB2151 from pHEN-1 and tested as culture supernatant; It was detected with anti-c-myc 9E10; also called VHH-L35; VHH L35) VHH: EVQLQASGGGLVQAGGSLRLSCAASGSTFSINVIGWYRQAPGKQRELVAGISRSGNTNYADSVEGRFTISRDYAKNTVYLQMNSLKPEDTAVYYCHSKTYLLHMYWGQGTQVTVSS |
| – | 60 | VHH ALZ L1-3 (VHH, Alpaca VHH, produced soluble in E. coli HB2151 from pHEN-1 and tested as culture supernatant; It was detected with anti-c-myc 9E10; also called VHH ALZ Ll-3; VHH-L1-3) VHH: EVQLQASGGGLVQAGGSLRLSCSASASTTFSMNTMAWHRQAPGKQRSLVALIGATHSINYEDSVKGRFTISRDNAKNTVYLQMSSLKPEDTAVYYCNDWYWQMKGGSWGQGTQVTVSS |
